Test results: the domain aggregation screens of Martell et al. (2025)

Experiment: soluble fraction after stress (log2 fold change); higher = more stays soluble; pooled small domains, quantitative proteomics
Settings: stress: 50 degC
How it was run: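 Each library was heated to 50°C as a stress step. The libraries, made up of small protein domains, were pooled and analysed at high throughput by quantitative proteomics. The reported value is the base-two logarithm of the fold change in each protein's soluble amount after stress, taken as a measure of aggregation propensity. The higher the value, the more protein stays in solution.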

| Sequence | soluble fraction (log2) |
| --- | --- |
| HMGTSRVQSILFDQSQWTINRAVHWLNTHHFISTKIDKTDKYLRFRQFDPNPDSHHATKRTSQGITFILE | -3.51 |
| HMDLHSQVFESYERKIREVLREGPLTFEEILHAFALKRHETVAQVITYLMDEGKMSDSGDGKLIYSG | -0.558 |
| HMPTKSDLLQWIKDRASKMGGAFTNSGAYALADAGVDGPRALSSEINKLLTYVNWERSVEADDVIRL | -0.13 |
| HMVSNRMVYSDFQQKWINNQVESINVNADKMTIEVTTQDEKKYTVYAPSSMIEFLNEQYPKDDIKIEYVAP | -0.147 |
| HMYLNYQTIGKRIRLLRKQQHLTQMTLAEMVDKSPTYISLVENGQKGPSLETLIDVANALKVTMDVLLAEY | -4.39 |
| HMKPPVQVIGKAVVTASSLNVRTGPGTGHGIITSLPRNTEVELLEQQGEWYKIRRGSTVGYVHGGYLKIN | -0.00404 |
| HMDRKEEIIIVTLKLASQIGLSNVSMEQIAKQVGIKKPSLYNHFKSKDEIIDAMYEYLREKSKN | -0.869 |
| HMNILAPFWERFGLSAFAAGNYDRAEGYFRKLEQKDPNSMSVLRNLGLILMAKGDAEGAEAYLLREEKL | -0.67 |
| HMRRPTYPTVTTEAGMVVEDRSSGFVGDIVRWSFEGVTLRDRQQQLRHFTWKPGGFLINGTPVTLKRPE | -0.629 |
| HMERQILFTKEDLIEFGLSGGTDSRKRRDVLGHILGIGYSNSKQFLNRLNNFGVTREEFLSAIERIG | -0.778 |
| HMNNIPFIITDERLNVIQSHLVPREVLDHPDRLRRQIDRFTEENQPKTVNYWWGPEHRHIIFYGKSK | 0.445 |
| HMKDLQAISERMEEIISFAKANDNEISLFIVQDIIKNKKTGIDEDLLNMALYQIKEQGIKVLPA | -0.0793 |
| HMDKEIKILKEKRLDDVQQAIRELSPQKRRVVEMKLYHNSTNQEVADKLAISVNTVKSLYTSALHDLRRIL | -0.139 |
| HMGEIILVPDVKAQGVSDARYTLNQAGLDAVIADSSYNRNSPPGAVLEQMPAPGSKVKSGHAIYLIINTT | 0.053 |
| HMAYLTVPAVIAKDTKKSIQLLESKGFEVVIQDSIYTDTLARGTVIKQLPDPNATVKINRTVYLTVNRYTP | -2.1 |
| HMVAGHLSEKKGYYYAVLNYKDYTGKRKSKWVSTGLPVKGNKRRAEKILADIKRDFVPEEPKR | -0.596 |
| HMETLSVRERMTSIISLLNKHEDIEFSKLFNISEGRLGVVVTFLALLELVKESLVDVIQNQPMSKLYIGKK | -0.311 |
| HMTLQEFYARVGGDYNATLSRLPSEALVKKFILKYPGDPSFAQLKDALAAQDWELAFRASHTLKGVAQN | -1.3 |
| HMSSFIEAIKQSGTDSLDVIMKNGRVYRYVGIDADRLGYLLEPHQQKLSLEESIGRFYIDYIKGIYEAIE | -1.57 |
| HMREEFIGVLDGKVAIFHGRPERKGPLKEVTAIEVDKLPRQEQADLEKGLVIRTDKEKLQLMEGLAALLD | 0.289 |
| HMDTGKLQSLVGSRGVAHTVLRPSGKVMIGDDVYPAVAETGFIPRGTAIVVRREEQGQLYVVEARK | 0.179 |
| HMEQLESAVASRTLIGQAQGVIMERYGLSAPNAFSVLSRISQDSNTKLAEVAQQIVATRRIPG | -0.188 |
| HMQKNFYQILGVDSKASPATINAAYERAKSRVIQSGLEDPDTMALLRDAWETLADPGDRAAYDESLAT | 0.0751 |
| HMADQVVGQLGMVTQRIDNLQQTGRVSANGLDWAARSENGQPIPQGMPVEVLRIEGVKLIVRPVN | -0.0238 |
| HMVKLSDGIVEHIKSLIMAGRLKPGDKLPPEREFAATLGVSRTALREAVRTLSLMGLLDARQGEGTFVSG | -0.116 |
| HMGNWENVEKETTEAIMAVKNGEAVWVDLAPANRMIRQMQHELVEQYGLLSQSYGKEPKRRIRIFQNP | -0.337 |
| HMTPLILTAQEGGERLDAFVASQVEDLTRSAAQRLLEQGAVTSGGKPLKKNAKTTPGMVVEVLLPDPQ | 0.251 |
| HMPNYVEMLRLHEAGFSLRQIAKLVSSGRNTVTRTVNIAQEKELSYEEIAQWSSEELENMFKPD | -1.68 |
| HMLERKFGTSLEIKSLSKFLIENNYKKNAKYLNKLIQVLGTRSENRIIKTFFKQFPEIENIFRNQL | -0.846 |
| HMGKRRGLKVAEEVFADRGYNPDGTLVNRSLPGAFVKDPDEAIARVIKMVKTKKVTAVNGEEIDIAADSI | 0.132 |
